According to patent US20060019324A1:

T1: PknB1-279 (His-tagged catalytic kinase core of the Ser/Thr protein kinase PknB, Rv0014c, aa 1-279), P9WI81
T1 chain: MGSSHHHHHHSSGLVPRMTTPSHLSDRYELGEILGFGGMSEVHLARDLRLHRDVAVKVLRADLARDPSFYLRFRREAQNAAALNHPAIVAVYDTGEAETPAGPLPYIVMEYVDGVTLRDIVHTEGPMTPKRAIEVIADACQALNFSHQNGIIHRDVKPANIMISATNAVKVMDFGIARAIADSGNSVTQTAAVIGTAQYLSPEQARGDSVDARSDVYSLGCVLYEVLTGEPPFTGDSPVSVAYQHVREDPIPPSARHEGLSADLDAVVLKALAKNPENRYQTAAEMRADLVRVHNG


How the values were obtained:
[1] = target: PknB1-279 (His-tagged catalytic kinase core of the Ser/Thr protein kinase PknB, Rv0014c, aa 1-279) (Mycobacterium tuberculosis) (UniProt P9WI81); test: cell-based or functional assay
[2] = target: T1, PknB1-279 (His-tagged catalytic kinase …)

Row | Molecule | MALDI-TOF mass of PknB1-279 after treatment with PstP or alkaline phosphatase: phosphate groups removed (phosphate groups) [1] | dephosphorylation of [33P]-autophosphorylated PknB1-279 by PstP, SDS-PAGE and autoradiography, with or without MnCl2 [2] | kinase activity of PknB on MBP (thio-γATP) after preincubation with PstP [2]
1 | PstP1-240 (His-tagged catalytic domain of the Ser/Thr protein phosphatase PstP, Rv0018c, aa 1-240) (from UniProt P9WHW5 1-240) (enzyme) | 3 |  | 
2 | PstP1-240 (His-tagged catalytic domain of the Ser/Thr protein phosphatase PstP, Rv0018c, aa 1-240) (protein) MARVTLVLRYAARSDRGLVRANNEDSVYAGARLLALADGMGGHAAGEVASQLVIAALAHLDDDEPGGDLLAKLDAAVRAGNSAIAAQVEMEPDLEGMGTTLTAILFAGNRLGLVHIGDSRGYLLRDGELTQITKDDTFVQTLVDEGRITPEEAHSHPQRSLIMRALTGHEVEPTLTMREARAGDRYLLCSDGLSDPVSDETILEALQIPEVAESAHRLIELALRGGGPDNVTVVVADVVD |  | PstP is capable of dephosphorylating PknB | prior dephosphorylation of PknB by PstP inhibits kinase activity on MBP
